Measured values taken from publication PMC11357854, “Molecular insights into the regulatory landscape of PKC-related kinase-2 (PRK2/PKN2) using targeted small compounds” (The Journal of Biological Chemistry, 2024).
Blank lines part the entries; values can stand above or below the binder they belong to. No end group written: not given here. *: point of attachment. Biotin = O=C1N[C@H]2[C@H](CS[C@H]2CCCCC(=O)*)N1

B4: GST-PRK2_(643-984) WT (domain or fragment)
chain: not shown
modifications: phosphorylated at the activation loop (Thr816 in PRK2)
notes: PKC-related kinase 2 (PRK2/PKN2), catalytic domain with the C-terminal PIF/HM region, lacking the N-terminal 642 residues; also called isolated catalytic domain of PRK2; GST-PRK2 CD WT; source: HEK293T, transient transfection (pEBG2T-derived plasmid), purified
B5: GST-PRK2_(643-984) [T958A] (domain or fragment)
chain: not shown
modifications: phosphorylated at the activation loop (Thr816 in PRK2)
notes: source: HEK293T, transient transfection (pEBG2T-derived plasmid), purified
B6: His-PDK1_(1-556) (enzyme, UniProt O15530 1-556, looked up)
chain: MARTTSQLYDAVPIQSSVVLCSCPSPSMVRTQTESSTPPGIPGGSRQGPAMDGTAAEPRPGAGSLQHAQPPPQPRKKRPEDFKFGKILGEGSFSTVVLARELATSREYAIKILEKRHIIKENKVPYVTRERDVMSRLDHPFFVKLYFTFQDDEKLYFGLSYAKNGELLKYIRKIGSFDETCTRFYTAEIVSALEYLHGKGIIHRDLKPENILLNEDMHIQITDFGTAKVLSPESKQARANSFVGTAQYVSPELLTEKSACKSSDLWALGCIIYQLVAGLPPFRAGNEYLIFQKIIKLEYDFPEKFFPKARDLVEKLLVLDATKRLGCEEMEGYGPLKAHPFFESVTWENLHQQTPPKLTAYLPAMSEDDEDCYGNYDNLLSQFGCMQVSSSSSSHSLSASDTGLPQRSGSNIEQYIHDLDSNSFELDLQFSEDEKRLLLEKQAGGNPWHQFVENNLILKMGPVDKRKGLFARRRQLLLTEGPHLYYVDPVNKVLKGEIPWSQELRPEAKNFKTFFVHTPNRTYYLMDPSGNAHKWCRKIQEVWRQRYQSHPDAAVQ
notes: also called full-length PDK1; His-PDK1 FL; source: Sf9 (Bac-to-Bac), purified (nickel-nitrilotriacetic acid, gel filtration)
B7: His-PDK1_(50-359) (domain or fragment, UniProt O15530 50-359, looked up)
chain: AMDGTAAEPRPGAGSLQHAQPPPQPRKKRPEDFKFGKILGEGSFSTVVLARELATSREYAIKILEKRHIIKENKVPYVTRERDVMSRLDHPFFVKLYFTFQDDEKLYFGLSYAKNGELLKYIRKIGSFDETCTRFYTAEIVSALEYLHGKGIIHRDLKPENILLNEDMHIQITDFGTAKVLSPESKQARANSFVGTAQYVSPELLTEKSACKSSDLWALGCIIYQLVAGLPPFRAGNEYLIFQKIIKLEYDFPEKFFPKARDLVEKLLVLDATKRLGCEEMEGYGPLKAHPFFESVTWENLHQQTPPKLT
notes: also called catalytic domain of PDK1; source: Sf9 (Bac-to-Bac), purified (nickel-nitrilotriacetic acid, gel filtration)

Legend:
Details in all cases: both partners purified
[1] = target: B7; test: AlphaScreen or HTRF; competitive displacement of His-PDK1 / GST-PRK2 [T958A] complexes by varied PIFtide; 30 to 40 nM PDK1 versus 5 to 10 nM PRK2; nickel chelate acceptor beads and glutathione donor beads
[2] = target: B6; test: as above
[3] = target: B7; test: AlphaScreen or HTRF; His-tagged PDK1 construct (30 nM) and biotin-PIFtide (Cys → Ser; 10 or 30 nM), cross-titration and displacement by small compounds; nickel chelate and streptavidin-coated beads
[4] = target: T1, His-PDK1_(50-359) [PRK2-pocket] (UniProt O15530 50-359, K76Q | I119V | V127L | T128M | R131K | T148C | L155V); test: as above
T1 construct: also called PDK1 [PRK2-pocket]; His-PDK1 [PIF-pocket PRK2]; source: Sf9 (Bac-to-Bac), purified (nickel-nitrilotriacetic acid, gel filtration)
T1 sequence (looked up): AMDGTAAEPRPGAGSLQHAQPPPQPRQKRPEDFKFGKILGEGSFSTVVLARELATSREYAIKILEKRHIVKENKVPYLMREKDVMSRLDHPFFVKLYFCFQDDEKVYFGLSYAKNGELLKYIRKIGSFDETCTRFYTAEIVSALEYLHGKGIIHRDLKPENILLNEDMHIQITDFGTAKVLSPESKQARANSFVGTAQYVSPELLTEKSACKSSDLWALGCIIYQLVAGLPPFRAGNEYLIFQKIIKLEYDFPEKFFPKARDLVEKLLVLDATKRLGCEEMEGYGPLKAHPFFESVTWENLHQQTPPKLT

[5] = target: B4; test: AlphaScreen or HTRF; GST-PRK2_(643-984) (1.5 nM) and biotin-PKLtide (75 nM) with varied compounds or 5% DMSO; anti-GST-coated acceptor beads and streptavidin-coated donor beads
[6] = target: B6; test: AlphaScreen or HTRF; His-PDK1 fixed at 20 nM against varied GST-PRK2 constructs; nickel chelate acceptor beads and glutathione donor beads; 50 mM Tris-HCl pH 7.4 (or 20 mM Hepes pH 7.5), 100 mM NaCl, 1 to 2 mM DTT, 0.01% Tween 20, 0.1% BSA; 90 min at room temperature
[7] = target: T2, GST-PRK2_(1-984) [T958A] (UniProt Q16513 1-984, T958A, phosphorylated at the activation loop (Thr816 in PRK2)); test: AlphaScreen or HTRF; competitive displacement of His-PDK1 / GST-PRK2 [T958A] complexes by varied PIFtide; 30 to 40 nM PDK1 versus 5 to 10 nM PRK2; nickel chelate acceptor beads and glutathione donor beads
T2 construct: also called full-length PRK2 T958A; source: HEK293T, transient transfection (pEBG2T-derived plasmid), purified

[8] = target: T3, GST-PRK2_(1-984) WT (UniProt Q16513 1-984, phosphorylated at the activation loop (Thr816 in PRK2)); test: AlphaScreen or HTRF; His-PDK1 fixed at 20 nM against varied GST-PRK2 constructs; nickel chelate acceptor beads and glutathione donor beads; 50 mM Tris-HCl pH 7.4 (or 20 mM Hepes pH 7.5), 100 mM NaCl, 1 to 2 mM DTT, 0.01% Tween 20, 0.1% BSA; 90 min at room temperature
T3 construct: also called full-length PRK2; PKN2; source: HEK293T, transient transfection (pEBG2T-derived plasmid), purified

[9] = target: B4; test: AlphaScreen or HTRF; His-PDK1 and GST-PRK2 at fixed concentrations (30 to 50 nM PDK1, 5 to 50 nM PRK2) with varied small compounds (PS210, GSK2334470, UCN-01, Y-27632); nickel chelate acceptor beads and glutathione donor beads
[10] = target: B5; test: as above

binding result [1]: binds
binding result [2]: binds
B1: PIFtide (peptide)
peptide: REPRILSEEEQEMFRDFDYIADWC
notes: also called polypeptide PIF; HM polypeptide derived from the C terminus of PRK2; source: synthetic peptide (JPT Peptide Technologies)

binding result [3]: binds
binding result [4]: binds
B2: biotin-PIFtide (Cys → Ser) (peptide)
peptide: Biotin-REPRILSEEEQEMFRDFDYIADWS
notes: PIFtide, C-terminal region of PRK2, with the last Cys replaced by Ser; source: synthetic peptide (Pepscan)

binding result [5]: binds
B3: biotin-PKLtide (peptide)
peptide: Biotin-PKLQRQKKIFSKQQG
notes: polypeptide comprising the pseudosubstrate PKL region of PRK2; source: synthetic peptide (JPT Peptide Technologies)

Binder: B4
binding result [6]: binds

Binder: B5
binding result [2]: binds

Binder: B6
binding result [7]: binds
binding result [8]: binds

Binder: B7
binding result [7]: binds
binding result [9]: binds
binding result [10]: binds
binding result [8]: binds
